Measured values as given in patent publication US12280095B2, “Tissue modifier and uses therefor” (Fibrosoft Pte Ltd, priority 2021, dated 2025).

Tested on: Dupuytren's disease
Assay: Treatment of Dupuytren's disease patients by intralesional injection of tPA in combination with hyaluronidase
Type: in vivo, human

B1: ALTEPLASE: tissue plasminogen activator (tPA), collagenase-producing agent; comparator when administered on its own (protein, UniProt P00750 36-562, looked up)
Tissue-type plasminogen …: SYQVICRDEKTQMIYQQHQSWLRPVLRSNRVEYCWCNSGRAQCHSVPVKSCSEPRCFNGGTCQQALYFSDFVCQCPEGFAGKCCEIDTRATCYEDQGISYRGTWSTAESGAECTNWNSSALAQKPYSGRRPDAIRLGLGNHNYCRNPDRDSKPWCYVFKAGKYSSEFCSTPACSEGNSDCYFGNGSAYRGTHSLTESGASCLPWNSMILIGKVYTAQNPSAQALGLGKHNYCRNPDGDAKPWCHVLKNRRLTWEYCDVPSCSTCGLRQYSQPQFRIKGGLFADIASHPWQAAIFAKHRRSPGERFLCGGILISSCWILSAAHCFQERFPPHHLTVILGRTYRVVPGEEEQKFEVEKYIVHKEFDDDTYDNDIALLQLKSDSSRCAQESSVVRTVCLPPADLQLPDWTECELSGYGKHEALSPFYSERLKEAHVRLYPSSRCTSQHLLNRTVTDNMLCAGDTRSGGPQANLHDACQGDSGGPLVCLNDGRMTLVGIISWGLGCGQKDVPGVYTKVTNYLDWIRDNMRP
- mean time required to observe discernible reduction in volume of the fibromatosis, reduction of contracture and improvement in the range of motion (ALTEPLASE administered on its own, patients with Dupuytren's disease): 4-6 weeks
- time required to obtain similar effects (volume reduction, flexion improvement) (ALTEPLASE alone): 4-6 weeks
